Assay results taken from publication PMC7141386, “Extracellular CIRP induces macrophage endotoxin tolerance through IL-6R–mediated STAT3 activation” (JCI Insight, 2020).
Changes are numbered by the printed parent chain.

B1: recombinant human CIRP (cold-inducible RNA-binding protein) (natural protein, UniProt Q14011 1-172, looked up)
chain: MASDEGKLFVGGLSFDTNEQSLEQVFSKYGQISEVVVVKDRETQRSRGFGFVTFENIDDAKDAMMAMNGKSVDGRQIRVDQAGKSSDNRSRGYRGGSAGGRGFFRGGRGRGRGFSRGGGDRGYGGNRFESRSGGYGGSRDYYSSRSQSGGYSDRSSGGSYRDSYDSYATHNE
notes: also called rhCIRP; eCIRP; source: bought: Origene
B2: recombinant murine CIRP (cold-inducible RNA-binding protein) (natural protein, mouse, UniProt P60824 1-172, looked up)
chain: B1 chain with S21A, G109S, N126G, S143A, S148G, G150S, S152G, D153Y
notes: also called rmCIRP

Columns and labels:
[1] = target: T1, recombinant human IL-6R alpha protein Leu20-Asp358 (human, UniProt P08887 20-358); assay: SPR; Biacore 3000; rhIL-6R immobilised on a CM5 chip (amine coupling, 10 mM sodium acetate pH 4.5); rhCIRP as analyte 0-1.0 uM; 1x PBS with 0.01% Tween-20, pH 7.4; 30 uL/min, 25°C; global fit to the Langmuir model for 1:1 binding; details: both partners purified
T1 construct: human IL-6 receptor alpha, Leu20-Asp358; no tags in the Biacore assay; also called rhIL-6R; IL-6 receptor; source: bought: R&D Systems, Bio-Techne; Spodoptera frugiperda Sf21, baculovirus-derived
T1 sequence (looked up): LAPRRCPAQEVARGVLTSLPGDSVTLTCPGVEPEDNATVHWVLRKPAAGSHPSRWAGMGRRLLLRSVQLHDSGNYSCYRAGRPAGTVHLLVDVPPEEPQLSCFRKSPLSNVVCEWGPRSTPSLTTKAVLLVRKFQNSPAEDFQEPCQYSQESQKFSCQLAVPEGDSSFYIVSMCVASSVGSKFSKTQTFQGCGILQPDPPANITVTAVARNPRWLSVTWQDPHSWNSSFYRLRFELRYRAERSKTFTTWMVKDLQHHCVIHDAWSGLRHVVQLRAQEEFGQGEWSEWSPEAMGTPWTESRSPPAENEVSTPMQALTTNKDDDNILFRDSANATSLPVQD

[2] = target: T2, mouse IL-6 receptor on peritoneal macrophages (mouse (endogenous in peritoneal …, UniProt P22272 20-460)); assay: FRET or BRET; peritoneal macrophages in a 96-well plate treated with rmCIRP for 10 minutes at 4°C, fixed with 4% paraformaldehyde, stained with anti-CIRP and anti-IL-6R or anti-CD11b antibodies and Cy3- and Cy5-labelled secondary antibodies; FRET units from cell-associated fluorescence (Biotek Synergy Neo2); details: one partner purified
T2 construct: IL-6 receptor alpha, mouse, endogenous on peritoneal macrophages, detected with goat anti-mouse IL-6R antibody; also called IL-6Rα; source: endogenous, on murine peritoneal macrophages
T2 sequence (looked up): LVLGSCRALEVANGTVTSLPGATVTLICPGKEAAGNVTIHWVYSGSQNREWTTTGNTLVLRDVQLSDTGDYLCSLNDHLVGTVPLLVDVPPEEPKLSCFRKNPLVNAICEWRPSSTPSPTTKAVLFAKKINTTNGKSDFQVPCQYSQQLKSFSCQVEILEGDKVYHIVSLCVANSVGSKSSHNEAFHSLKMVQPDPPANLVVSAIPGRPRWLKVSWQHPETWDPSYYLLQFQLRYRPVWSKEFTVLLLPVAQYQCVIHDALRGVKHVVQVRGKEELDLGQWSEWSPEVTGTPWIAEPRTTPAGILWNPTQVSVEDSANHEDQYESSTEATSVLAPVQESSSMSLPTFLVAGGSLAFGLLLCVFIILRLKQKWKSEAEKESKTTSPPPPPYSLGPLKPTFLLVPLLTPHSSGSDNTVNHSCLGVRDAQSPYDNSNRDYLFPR

Binder | Kd [1] | fold increase in FRET units against the negative control CD11b [2]
B1 | 98 nM | –
B2 | – | 17 fold
